T1: murine G-CSF receptor (G-CSFR) on mouse NFS-60 cells (mouse, UniProt P40223 26-837)
T1 sequence (looked up): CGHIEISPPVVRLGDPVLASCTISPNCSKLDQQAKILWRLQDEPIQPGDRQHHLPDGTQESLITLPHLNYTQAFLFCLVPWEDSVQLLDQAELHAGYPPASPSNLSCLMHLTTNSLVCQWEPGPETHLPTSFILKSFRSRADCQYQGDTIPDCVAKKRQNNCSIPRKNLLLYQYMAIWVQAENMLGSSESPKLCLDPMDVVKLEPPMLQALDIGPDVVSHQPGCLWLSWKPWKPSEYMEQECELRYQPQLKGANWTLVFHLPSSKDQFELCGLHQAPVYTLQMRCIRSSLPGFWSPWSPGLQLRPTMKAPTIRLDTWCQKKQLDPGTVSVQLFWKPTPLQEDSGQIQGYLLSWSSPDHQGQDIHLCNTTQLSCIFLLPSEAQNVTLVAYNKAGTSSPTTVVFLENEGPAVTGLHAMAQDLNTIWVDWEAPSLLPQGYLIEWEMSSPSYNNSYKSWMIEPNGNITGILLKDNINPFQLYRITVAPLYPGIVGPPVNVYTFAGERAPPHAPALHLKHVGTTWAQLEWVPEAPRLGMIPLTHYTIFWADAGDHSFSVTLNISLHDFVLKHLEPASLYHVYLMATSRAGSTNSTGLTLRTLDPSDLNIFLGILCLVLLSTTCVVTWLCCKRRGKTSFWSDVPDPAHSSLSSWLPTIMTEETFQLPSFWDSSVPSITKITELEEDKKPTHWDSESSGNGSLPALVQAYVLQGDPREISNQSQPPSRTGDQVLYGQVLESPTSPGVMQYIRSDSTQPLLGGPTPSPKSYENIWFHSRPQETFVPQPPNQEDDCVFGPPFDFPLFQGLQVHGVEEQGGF

T2: Factor XIIa (activated Factor XII) (UniProt P00748 20-615, limits assumed)
T2 sequence (looked up): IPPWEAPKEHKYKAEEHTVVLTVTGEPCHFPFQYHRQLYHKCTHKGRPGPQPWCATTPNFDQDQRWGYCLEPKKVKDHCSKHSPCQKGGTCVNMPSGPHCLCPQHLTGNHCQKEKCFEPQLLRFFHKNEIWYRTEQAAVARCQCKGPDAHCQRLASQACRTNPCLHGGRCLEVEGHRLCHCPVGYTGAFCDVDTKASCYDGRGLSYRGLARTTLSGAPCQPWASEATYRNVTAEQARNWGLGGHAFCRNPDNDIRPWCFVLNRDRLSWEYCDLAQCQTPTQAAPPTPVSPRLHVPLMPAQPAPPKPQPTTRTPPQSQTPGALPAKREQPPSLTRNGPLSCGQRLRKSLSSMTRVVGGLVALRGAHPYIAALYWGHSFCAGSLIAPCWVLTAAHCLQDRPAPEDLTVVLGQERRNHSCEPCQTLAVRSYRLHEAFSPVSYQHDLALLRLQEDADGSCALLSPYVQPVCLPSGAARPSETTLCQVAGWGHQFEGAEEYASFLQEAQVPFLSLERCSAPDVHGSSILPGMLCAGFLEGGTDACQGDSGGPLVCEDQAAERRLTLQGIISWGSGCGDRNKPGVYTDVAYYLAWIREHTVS


Key:
[1] = target: T1, murine G-CSF receptor (G-CSFR) on mouse …; assay: cell-based or functional assay
[2] = target: T2, Factor XIIa (activated Factor XII); assay: cell-based or functional assay

| IC50 (nM), inhibition of mG-CSF-dependent proliferation of mouse NFS-60 cells, stimulated with 0.1 ng/ml mG-CSF [1] | IC50 (nM), inhibition of mG-CSF-dependent proliferation of mouse NFS-60 cells, stimulated with 1.0 ng/ml mG-CSF [1] | IC50 (nM), chromogenic assay of Factor XIIa activity [2] | Binder |
| --- | --- | --- | --- |
| 0.00104 nM | 0.00323 nM | – | VR81, mouse monoclonal IgG1κ antibody against the extracellular domain of murine G-CSFR (antibody, V domains shown) VH: EVQLLESGGGLVQPGGSLRLSCAASGFTFSYYAMWWVRQAPGKGLEWVSLIDVSGGVQLYADSVKGRFTISRDNSKNTLYLQMNSLRAEDTAVYYCAKPLIGTRDAFDIWGQGTMVTVSS VL: not shown |
| – | – | 17.2 nM | ch3F7-mG1L-aFXII (3F7) (antibody, V domains shown) VH: EVQLLESGGGLVQPGGSLRLSCAASGFTFSKYIMQWVRQAPGKGLEWVSGIRPSGGTTVYADSVKGRFTISRDNSKNTLYLQMNSLRAEDTAVYYCARALPRSGYLISPHYYYYALDVWGQGTTVTVSS VL: QSELTQPPSASGTPGQRVTISCSGSSSNIGRNYVYWYQQVPGTAPKLLIYSNNQRPSGVPDRFSGSKSGTSASLVISGLRSEDEADYYCAAWDASLRGVFGGGTKLTVLG |

Source: patent US20220305133A1 (CSL INNOVATION, published 2022)
